According to PMC4075491, “Crystallography based structure elucidation of the complex of C-terminal fragment of Aβ polypeptide of Alzheimer’s disease with phospholipase A2” (BMC Genomics, 2014):

Biological target: T1, phospholipase A2 (PLA2) from cobra venom (cobra, UniProt P60045 8-126)
T1 construct: source: purified to homogeneity from cobra venom
Assay: enzyme kinetic studies (competitive); kinetic studies; the peptide binds to PLA2 in a competitive manner; no conditions told
Details: both partners purified

T1 sequence (P60045 8-126): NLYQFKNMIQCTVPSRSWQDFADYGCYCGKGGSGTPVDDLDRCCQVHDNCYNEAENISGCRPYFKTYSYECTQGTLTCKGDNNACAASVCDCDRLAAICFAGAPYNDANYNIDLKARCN

B1: Aβ(36-42) C-terminal heptapeptide Val-Gly-Gly-Val-Val-Ile-Ala (peptide)
peptide: VGGVVIA
notes: C-terminal heptapeptide of the Aβ polypeptide of Alzheimer's disease, residues 36-42; numbers count on: the Aβ peptide; also called VGGVVIA; Aβ_(36-42) peptide
**Q.** Which Ki does the source give for B1 here?
**A.** 520 nM
